Biological target: Mouse FGFR4/β-klotho complex co-expressed in L6 cells (mouse, UniProt Q03142 17-799; Q99N32 1-1043)
Assay: cell-based or functional assay

Mouse FGFR4/β-klotho complex co-expressed in L6 cells, sequence (Q03142 17-799, chain 1 of 2): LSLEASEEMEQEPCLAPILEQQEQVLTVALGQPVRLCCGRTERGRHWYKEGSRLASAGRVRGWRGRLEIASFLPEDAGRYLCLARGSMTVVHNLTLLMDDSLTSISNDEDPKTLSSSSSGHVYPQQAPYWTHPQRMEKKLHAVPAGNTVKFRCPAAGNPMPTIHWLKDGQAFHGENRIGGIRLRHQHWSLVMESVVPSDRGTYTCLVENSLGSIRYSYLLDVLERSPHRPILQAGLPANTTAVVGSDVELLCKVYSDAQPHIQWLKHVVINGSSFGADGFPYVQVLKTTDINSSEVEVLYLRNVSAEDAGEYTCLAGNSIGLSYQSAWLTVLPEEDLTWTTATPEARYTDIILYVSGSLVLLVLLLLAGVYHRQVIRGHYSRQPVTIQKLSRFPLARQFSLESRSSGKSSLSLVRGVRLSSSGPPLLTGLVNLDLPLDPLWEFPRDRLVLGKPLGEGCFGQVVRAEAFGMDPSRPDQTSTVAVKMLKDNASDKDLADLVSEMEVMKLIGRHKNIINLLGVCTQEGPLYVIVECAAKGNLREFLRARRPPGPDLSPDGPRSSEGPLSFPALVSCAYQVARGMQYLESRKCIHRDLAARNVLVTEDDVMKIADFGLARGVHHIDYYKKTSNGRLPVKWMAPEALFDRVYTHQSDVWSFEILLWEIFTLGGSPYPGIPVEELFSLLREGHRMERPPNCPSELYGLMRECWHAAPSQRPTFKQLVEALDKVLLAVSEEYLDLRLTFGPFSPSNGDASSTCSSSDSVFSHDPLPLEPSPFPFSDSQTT
Mouse FGFR4/β-klotho complex co-expressed in L6 cells, sequence (Q99N32 whole entry, chain 2 of 2): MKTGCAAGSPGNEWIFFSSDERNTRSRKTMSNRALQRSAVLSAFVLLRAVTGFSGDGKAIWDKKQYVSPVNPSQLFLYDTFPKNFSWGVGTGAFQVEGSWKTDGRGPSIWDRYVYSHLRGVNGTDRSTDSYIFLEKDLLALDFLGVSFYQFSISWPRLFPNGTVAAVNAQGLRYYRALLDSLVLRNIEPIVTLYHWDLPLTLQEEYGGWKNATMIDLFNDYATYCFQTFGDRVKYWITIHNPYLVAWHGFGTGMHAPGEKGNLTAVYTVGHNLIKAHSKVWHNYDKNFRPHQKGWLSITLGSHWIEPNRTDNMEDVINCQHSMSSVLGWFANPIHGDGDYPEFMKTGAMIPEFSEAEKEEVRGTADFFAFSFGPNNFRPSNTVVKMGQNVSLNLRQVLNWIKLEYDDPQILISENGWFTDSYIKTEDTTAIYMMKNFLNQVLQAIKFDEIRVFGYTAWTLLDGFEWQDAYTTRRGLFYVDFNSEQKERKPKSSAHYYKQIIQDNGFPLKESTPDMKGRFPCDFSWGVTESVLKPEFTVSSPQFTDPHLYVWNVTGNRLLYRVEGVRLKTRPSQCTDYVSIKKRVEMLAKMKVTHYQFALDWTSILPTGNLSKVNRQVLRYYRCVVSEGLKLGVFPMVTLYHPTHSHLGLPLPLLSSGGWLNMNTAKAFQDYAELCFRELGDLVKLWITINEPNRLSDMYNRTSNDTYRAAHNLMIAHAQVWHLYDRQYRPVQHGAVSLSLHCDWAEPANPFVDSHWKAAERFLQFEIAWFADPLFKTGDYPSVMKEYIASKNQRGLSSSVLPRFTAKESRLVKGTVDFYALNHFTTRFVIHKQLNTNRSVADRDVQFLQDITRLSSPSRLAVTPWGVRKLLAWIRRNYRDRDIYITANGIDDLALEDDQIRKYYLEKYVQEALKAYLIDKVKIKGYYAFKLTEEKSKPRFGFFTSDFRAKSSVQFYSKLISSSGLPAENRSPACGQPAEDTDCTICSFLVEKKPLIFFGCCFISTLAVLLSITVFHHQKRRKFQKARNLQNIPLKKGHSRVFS

B1: M70 (FGF19 variant) (ligand)
chain: MRDSSPLVHYGWGDPIRLRHLYTSGPHGLSSCFLRIRADGVVDCARGQSAHSLLEIKAVALRTVAIKGVHSVRYLCMGADGKMQGLLQYSEEDCAFEEEIRPDGYNVYRSEKHRLPVSLSSAKQRQLYKNRGFLPLSHFLPMLPMVPEEPEDLRGHLESDMFSSPLETDSMDPFGLVTGLEAVRSPSFEK
EC50 (pM), ELK1 luciferase reporter in L6 cells: 38.3 pM | Emax (fold potentiation), ELK1 luciferase reporter in L6 cells: 1.85 fold potentiation

Reference: patent US20230226151A1 (NGM BIOPHARMACEUTICALS, published 2023)
